The results in this text go back to PMC12749748 (2025).

This assay has as its target VHL (Homo sapiens, UniProt P40337). Put plainly: SPR. Background: In SPR one partner is held on a chip, and binding of the other changes the refractive index at the surface.

The Kd is the free concentration of one partner at which half of the binding sites on the other are occupied at equilibrium, for simple one-to-one binding. The low end stands for tighter binding, the high end for weaker binding.

VHL, sequence (P40337 whole entry): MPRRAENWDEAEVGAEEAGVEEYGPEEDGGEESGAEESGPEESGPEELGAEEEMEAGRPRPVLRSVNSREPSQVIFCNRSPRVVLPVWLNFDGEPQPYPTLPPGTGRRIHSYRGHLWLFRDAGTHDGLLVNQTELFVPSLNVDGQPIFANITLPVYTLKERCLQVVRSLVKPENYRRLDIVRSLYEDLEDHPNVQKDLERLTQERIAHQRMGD

B1: IRE1 (protein)
chain: IFGSTSTVTLPETLLFVSTLDGSLHAVSKRTGSIKWTLKEDPVLQVPTHVEEPAFLPDPNDGSLYTLGSKNNEGLTKLPFTIPELVQASPCRSSDGILYMGKKQDIWYVIDLLTGEKQQTLSSAFADSLCPSTSLLYLGRTEYTITMYDTKTRELRWNATYFDYAASLPEDDVDYKMSHFVSNGDGLVVTVDSESGDVLWIQNYASPVVAFYVWQREGLRKVMHINVAVETLRYLTFMSGEVGRITKWKYPFPKETEAKSKLTPTLYVGKYSTSLYASPSMVHEGVAVVPRGSTLPLLEGPQTDGVTIGDKGECVITPSTDVKFDPGLKSKNKLNYLRNYWLLIGHHETPLSASTKMLERFPNNLPKHRENVIPADSEKKSFEEVINLVDQTSENAPTTVSRDVEEKPAHAPARPEAPVDSMLKDMATIILSTFLLIGWVAFIITYPLSMHQQQQLQHQQFQKELEKIQLLQQQQQQLPFHPPGDTAQDGELLDTSGPYSESSGTSSPSTSPRASNHSLCSGSSASKAGSSPSLEQDDGDEETSVVIVGKISFCPKDVLGHGAEGTIVYRGMFDNRDVAVKRILPECFSFADREVQLLRESDEHPNVIRYFCTEKDRQFQYIAIELCAATLQEYVEQKDFAHLGLEPITLLQQTTSGLAHLHSLNIVHRDLKPHNILISMPNAHGKIKAMISDFGLCKKLAVGRHSFSRRSGVPGTEGWIAPEMLSEDCKENPTYTVDIFSAGCVFYYVISEGSHPFGKSLQRQANILLGACSLDCLHPEKHEDVIARELIEKMIAMDPQKRPSAKHVLKHPFFWSLEKQLQFFQDVSDRIEKESLDGPIVKQLERGGRAVVKMDWRENITVPLQTDLRKFRTYKGGSVRDLLRAMRNKKHHYRELPAEVRETLGSLPDDFVCYFTSRFPHLLAHTYRAMELCSHERLFQPYYFHEPPEPQPPVTPDAL
B1: the Kd was > 10 µM.
